In article PMC3805550:

Molecular target: F-actin from chicken pectoral (skeletal) muscle (chicken) (UniProt P68139)
Assay: co-sedimentation; 5 uM F-actin with 0.1-6 uM AS-Cdc8p, 20 mM MOPS pH 7.0, 150 mM NaCl, 2 mM MgCl2, 20 C, 60,000 rpm 30 min; pellets and supernatants on SDS-PAGE, densitometry; Hill equation fit, apparent constant (Kapp)

## AS-Cdc8p wildtype (Ala-Ser-Cdc8p, S. pombe tropomyosin with AlaSer at the N terminus) (natural protein)
  Ka: 6.3e+06 M⁻¹
